Laboratory results reported in publication PMC4759255.

Molecular target: T1, His-LexA (Synechocystis sp. PCC 6803) (UniProt P73722)
T1 sequence: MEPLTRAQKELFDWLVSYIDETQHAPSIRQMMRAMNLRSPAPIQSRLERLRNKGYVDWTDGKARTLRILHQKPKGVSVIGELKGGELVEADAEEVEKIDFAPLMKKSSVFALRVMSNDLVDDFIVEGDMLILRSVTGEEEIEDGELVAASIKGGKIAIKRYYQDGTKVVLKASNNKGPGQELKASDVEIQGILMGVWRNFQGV
Assay: EMSA
Settings: Roche DIG gel shift kit 2nd generation buffer per manufacturer plus 1 mM DTT, 25 min at room temperature, 6% polyacrylamide gel; 5x and 50x unlabeled …

Sequence | binding
TGGGCAGGGTAAATTGATTTTTTCTTGTTGTTTGATCCCATTTTCCAGTCTTTTTGACTTCCATTCAGTCAGGATAATTTTTGCAGTTTTTTTATGGAGTTTTGATAACATTGAGCTTTGCCCCCGGCGATCGCCTAGGGATAAACAATAAACGTGTGAACTAATATGCCTGGATTTATCCCTGGATTGACATTGTTTTTGCC (double strand) [slr1670 promoter] | binds
GTGACAACTAACATCACCTAGATGATAAGTTAATTTACAACAAATGATTGTTAGCCAGCTCACCAAAACCTGTGACAATAAACACCAAAACAGTTTACTTGTTTCTATAATTTTCCCTGAAACTGGGGTTTGAGAGGGTCTAGGGGAGAATTTAGTTATTGTTTGGATATATTGTCATGGCACCACAAAAGCCGTCAACAAA (double strand) [pilA9 promoter] | binds
TGGGATCAAACAACAAGAAAAAATCAATTTACCCTGCCCATGGCAATAGTTTTAAGGTTAACAAAAAAAATAGAATTTACCGCAATCGACGGGTAAATTTCCAGAGGATACCCCCAACTCCAGAAGCAGAAATCTTGCCAGAAAAGCTTTTTCTGTTACTATACTTAACAAGTAACTACTTTTTCC (double strand) [ggpS promoter] | binds
TTGTTCAAGATCATTAGGCTTTAGTATATTTATAGTGATCAAAAAAGCAAGTGGTGAAAGAAACACCCAGACAAATATTCACAAAACTTAATTTTACTTAACAAATCATAATCCAGTTACGCAGTTACCACCTACACGGGAACCAGAACGCACGATTCCCAAGCCGGAAGAAATTACTAAGCATGGCTCATAGGATGTTCTAC (double strand) [pilA7 promoter] | binds
